Data set [1] deals with Kumin (M. tuberculosis Ku without the extended C-terminus) (M. tuberculosis). As to the kind of experiment: BLI; Octet RED96, 37°C, 1000 rpm; biotinylated Ku (25 ug/ml) loaded on streptavidin biosensors; LigD, LIG or POL as analyte (12.5 ug/ml), 300 s association, 300 s dissociation; 1x kinetics buffer (0.1% BSA, 0.02% Tween-20, 0.05% sodium azide in PBS); grouped global fit. Background: Biolayer interferometry detects binding as a change in optical thickness at a sensor tip.

For data set [2] the target is unchanged. Description: SEC-MALS; 50 uM protein in 50 mM HEPES pH 8.0, 1 mM EDTA, 200 mM NaCl; Superdex 200 Increase 10/300 GL; MiniDAWN and Optilab. Background: SEC sorts molecules by how far they enter the pores of the column.
Another data set deals with LigD (UniProt P9WNV3 1-759). As to the kind of experiment: fluorescence polarization; EMSA: 50 mM Tris-HCl pH 8.0, 50 mM NaCl, 1 mM DTT, 5 mM MgCl2, 4% glycerol, 0.025 mg/ml BSA, 10 nM DNA, 30 C 20 min; FP: 10 mM Tris-HCl pH 8, 10 mM NaCl, 10% glycerol, 1 mM TCEP, 50 nM DNA, 30 C; ternary EMSA: 20 mM Tris-HCl pH 8.0, 5 mM MgCl2, 5% glycerol, 37 C; bridging: 20 mM Tris-HCl pH 7.5, 50 mM KCl, 5 mM EDTA, 1 mM DTT, 5% glycerol, 40 ug/ml BSA, room temperature. To be noted: protein: recombinant; tags: His (Ni-NTA purified; pMCSG7); label: 5' 6-FAM on strand 1; blunt. In general terms: In fluorescence polarisation assays a small probe gives low polarisation when free and higher when bound to something large.

Data set [3] concerns the target T1, Kucore (Mycobacterium tuberculosis, UniProt P9WKD9 1-238).
T1 sequence: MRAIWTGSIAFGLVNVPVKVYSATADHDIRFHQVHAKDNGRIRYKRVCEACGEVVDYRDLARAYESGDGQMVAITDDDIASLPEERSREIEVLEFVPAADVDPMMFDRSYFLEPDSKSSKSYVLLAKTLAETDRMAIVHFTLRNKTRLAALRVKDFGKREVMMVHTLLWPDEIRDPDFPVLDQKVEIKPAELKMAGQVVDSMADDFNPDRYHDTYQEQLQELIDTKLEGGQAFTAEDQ
Description: EMSA; EMSA: 50 mM Tris-HCl pH 8.0, 50 mM NaCl, 1 mM DTT, 5 mM MgCl2, 4% glycerol, 0.025 mg/ml BSA, 10 nM DNA, 30 C 20 min; FP: 10 mM Tris-HCl pH 8, 10 mM NaCl, 10% glycerol, 1 mM TCEP, 50 nM DNA, 30 C; ternary EMSA: 20 mM Tris-HCl pH 8.0, 5 mM MgCl2, 5% glycerol, 37 C; bridging: 20 mM Tris-HCl pH 7.5, 50 mM KCl, 5 mM EDTA, 1 mM DTT, 5% glycerol, 40 ug/ml BSA, room temperature. To be noted: protein: recombinant; tags: His (Ni-NTA purified; pMCSG7); chain copies: 2; label: 5' 6-FAM on strand 1; blunt.

Data set [4] concerns the target T2, KuWT (Mycobacterium tuberculosis, UniProt P9WKD9 1-273).
T2 sequence: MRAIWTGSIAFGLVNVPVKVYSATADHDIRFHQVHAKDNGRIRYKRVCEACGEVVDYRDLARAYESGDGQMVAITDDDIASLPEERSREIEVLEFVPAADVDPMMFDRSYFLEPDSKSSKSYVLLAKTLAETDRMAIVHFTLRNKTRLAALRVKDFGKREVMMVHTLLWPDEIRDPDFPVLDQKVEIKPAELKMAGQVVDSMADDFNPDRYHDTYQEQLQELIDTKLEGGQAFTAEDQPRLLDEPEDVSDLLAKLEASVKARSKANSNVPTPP
Described as above. To be noted: protein: recombinant; tags: His (Ni-NTA purified; pMCSG7); chain copies: 2; label: 5' 6-FAM on strand 1; blunt.

In data set [5] the target is T3, Kumin (Mycobacterium tuberculosis, UniProt P9WKD9 1-259).
T3 sequence: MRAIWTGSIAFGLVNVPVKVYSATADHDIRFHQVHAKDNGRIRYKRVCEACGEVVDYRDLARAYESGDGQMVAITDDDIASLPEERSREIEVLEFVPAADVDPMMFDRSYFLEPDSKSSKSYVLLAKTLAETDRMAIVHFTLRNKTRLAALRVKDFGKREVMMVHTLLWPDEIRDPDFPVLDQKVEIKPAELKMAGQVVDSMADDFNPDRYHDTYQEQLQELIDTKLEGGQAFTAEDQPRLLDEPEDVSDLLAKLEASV
The description is as above. To be noted: protein: recombinant; tags: His (Ni-NTA purified; pMCSG7); chain copies: 2; label: 5' 6-FAM on strand 1; blunt.

Data set [6] has as its target T2, KuWT. Description: EMSA; 5 mM Mg2+; EMSA: 50 mM Tris-HCl pH 8.0, 50 mM NaCl, 1 mM DTT, 5 mM MgCl2, 4% glycerol, 0.025 mg/ml BSA, 10 nM DNA, 30 C 20 min; FP: 10 mM Tris-HCl pH 8, 10 mM NaCl, 10% glycerol, 1 mM TCEP, 50 nM DNA, 30 C; ternary EMSA: 20 mM Tris-HCl pH 8.0, 5 mM MgCl2, 5% glycerol, 37 C; bridging: 20 mM Tris-HCl pH 7.5, 50 mM KCl, 5 mM EDTA, 1 mM DTT, 5% glycerol, 40 ug/ml BSA, room temperature. To be noted: protein: recombinant; tags: His (Ni-NTA purified; pMCSG7); chain copies: 2; label: 5' 6-FAM on strand 1; blunt.

Data set [7] concerns the molecule itself. As to the kind of experiment: SEC-MALS; 50 uM protein; 50 mM HEPES pH 8.0, 1 mM EDTA, 200 mM NaCl; Superdex 200 Increase 10/300 GL.
The target in data set [8] is T1, Kucore. Description: EMSA; 5 mM Mg2+; EMSA: 50 mM Tris-HCl pH 8.0, 50 mM NaCl, 1 mM DTT, 5 mM MgCl2, 4% glycerol, 0.025 mg/ml BSA, 10 nM DNA, 30 C 20 min; FP: 10 mM Tris-HCl pH 8, 10 mM NaCl, 10% glycerol, 1 mM TCEP, 50 nM DNA, 30 C; ternary EMSA: 20 mM Tris-HCl pH 8.0, 5 mM MgCl2, 5% glycerol, 37 C; bridging: 20 mM Tris-HCl pH 7.5, 50 mM KCl, 5 mM EDTA, 1 mM DTT, 5% glycerol, 40 ug/ml BSA, room temperature. To be noted: protein: recombinant; tags: His (Ni-NTA purified; pMCSG7); chain copies: 2; label: 5' 6-FAM on strand 1; blunt.

Data set [9] addresses T3, Kumin. Described as above. To be noted: protein: recombinant; tags: His (Ni-NTA purified; pMCSG7); chain copies: 2; label: 5' 6-FAM on strand 1; blunt.
Data set [10] deals with the molecule itself. Description: SEC-MALS; 50 uM protein in 50 mM HEPES pH 8.0, 1 mM EDTA, 200 mM NaCl; Superdex 200 Increase 10/300 GL; MiniDAWN and Optilab.
The target in data set [11] is T4, LigD (wildtype), Mycobacterium tuberculosis (M. tuberculosis, UniProt P9WNV3 1-759).
T4 construct: The His tag is TEV-cleavable; also called wildtype LigD
Description: BLI; Octet RED96, 37°C, 1000 rpm; biotinylated Ku (25 ug/ml) loaded on streptavidin biosensors; LigD, LIG or POL as analyte (12.5 ug/ml), 300 s association, 300 s dissociation; 1x kinetics buffer (0.1% BSA, 0.02% Tween-20, 0.05% sodium azide in PBS); grouped global fit. To be noted: both partners purified.

This note sets out measurements from paper PMC9638933.

Sequence of LigD (P9WNV3 whole entry): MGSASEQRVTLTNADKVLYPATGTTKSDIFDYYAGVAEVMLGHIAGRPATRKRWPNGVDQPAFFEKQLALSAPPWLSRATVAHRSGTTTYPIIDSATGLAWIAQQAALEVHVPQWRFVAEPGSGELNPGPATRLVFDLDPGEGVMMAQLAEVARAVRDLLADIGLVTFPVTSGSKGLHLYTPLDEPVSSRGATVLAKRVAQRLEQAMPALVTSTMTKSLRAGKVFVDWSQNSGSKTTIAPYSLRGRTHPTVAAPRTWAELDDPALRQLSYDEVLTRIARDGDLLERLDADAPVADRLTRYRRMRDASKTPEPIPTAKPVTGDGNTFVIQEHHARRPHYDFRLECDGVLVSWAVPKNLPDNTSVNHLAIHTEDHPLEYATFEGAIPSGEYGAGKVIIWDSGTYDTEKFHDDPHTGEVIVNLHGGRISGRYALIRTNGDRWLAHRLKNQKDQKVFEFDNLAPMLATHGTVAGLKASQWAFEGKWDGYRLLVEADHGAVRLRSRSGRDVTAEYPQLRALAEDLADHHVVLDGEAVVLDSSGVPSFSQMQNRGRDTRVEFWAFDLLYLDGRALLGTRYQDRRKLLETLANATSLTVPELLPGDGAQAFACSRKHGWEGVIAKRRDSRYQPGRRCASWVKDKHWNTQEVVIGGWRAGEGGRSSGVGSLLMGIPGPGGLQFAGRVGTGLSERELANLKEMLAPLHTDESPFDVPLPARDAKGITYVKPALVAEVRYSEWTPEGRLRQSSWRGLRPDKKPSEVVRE
T4 sequence (P9WNV3 whole entry): as above

In the case of “LigD (wildtype), Mycobacterium tuberculosis (from UniProt P9WNV3 1-759) (enzyme)”, the Kd (as a rule, a measure of binding affinity in units of concentration) in data set [1] came out at 288 nM.
For “Kumin (M. tuberculosis Ku without the extended C-terminus) (domain or fragment)”, the stoichiometry N (in general, the number of molecules, sites or subunits per partner or assembly) in data set [2] was determined as 2.

B1: 10 bp dsDNA (dsDNA)
DNA 1: CAGGAAGGTG
DNA 2: CACCTTCCTG
For B1, the Kd in the data set with LigD was 1100 ± 70 nM. Besides, the binding result with Kucore [3], with KuWT [4] and with Kumin [5] was “no binding” each time.

B2: 15 bp dsDNA (dsDNA)
DNA 1: CAGGAAGGGAATGTT
DNA 2: AACATTCCCTTCCTG
For the molecule B2, the binding result with LigD was “binds”. In addition, the Kd with KuWT [6] came out at 1630 ± 300 nM.

B3: Mycobacterium tuberculosis Kumin (extended C-terminus removed) (domain or fragment)
chain: MRAIWTGSIAFGLVNVPVKVYSATADHDIRFHQVHAKDNGRIRYKRVCEACGEVVDYRDLARAYESGDGQMVAITDDDIASLPEERSREIEVLEFVPAADVDPMMFDRSYFLEPDSKSSKSYVLLAKTLAETDRMAIVHFTLRNKTRLAALRVKDFGKREVMMVHTLLWPDEIRDPDFPVLDQKVEIKPAELKMAGQVVDSMADDFNPDRYHDTYQEQLQELIDTKLEGGQAFTAEDQPRLLDEPEDVSDLLAKLEASV
modifications: in BLI only: biotin (NHS-LC-Biotin) on K19, K37, K45, K117, K120, K127, K154, K184, K188, K193, K226, K254
notes: Ku of M. tuberculosis, UniProt P9WKD9, residues 1-259 (core domain and minimal C-terminal region); The His tag is TEV-cleavable (pMCSG7) and no cleavage is described; The protein was not biotinylated for SEC-MALS
Turning to B3, the “stoichiometry N” value in data set [7] came to 2.

B4: 20 bp dsDNA (dsDNA)
DNA 1: CAGGAAGGGAATGTTGTCTG
DNA 2: CAGACAACATTCCCTTCCTG
Turning to B4, the binding result with LigD, in the data set with Kucore [8], in the data set with KuWT [6] and in the data set with Kumin [9] was “binds” each time.

B5: Mycobacterium tuberculosis Kucore (entire C-terminus removed) (domain or fragment)
chain: MRAIWTGSIAFGLVNVPVKVYSATADHDIRFHQVHAKDNGRIRYKRVCEACGEVVDYRDLARAYESGDGQMVAITDDDIASLPEERSREIEVLEFVPAADVDPMMFDRSYFLEPDSKSSKSYVLLAKTLAETDRMAIVHFTLRNKTRLAALRVKDFGKREVMMVHTLLWPDEIRDPDFPVLDQKVEIKPAELKMAGQVVDSMADDFNPDRYHDTYQEQLQELIDTKLEGGQAFTAEDQ
modifications: in BLI only: biotin (NHS-LC-Biotin) on K19, K37, K45, K117, K120, K127, K154, K158, K184, K188, K193, K226
notes: Ku of M. tuberculosis, UniProt P9WKD9, residues 1-238 (core domain); The His tag is TEV-cleavable (pMCSG7) and no cleavage is described; The protein was not biotinylated for SEC-MALS; also called Ku core domain
Consider B5, for which the “stoichiometry N” value in data set [7] came out at 2.

B6: Ku_(core) (M. tuberculosis Ku core domain, entire C-terminus removed) (domain or fragment)
chain: MRAIWTGSIAFGLVNVPVKVYSATADHDIRFHQVHAKDNGRIRYKRVCEACGEVVDYRDLARAYESGDGQMVAITDDDIASLPEERSREIEVLEFVPAADVDPMMFDRSYFLEPDSKSSKSYVLLAKTLAETDRMAIVHFTLRNKTRLAALRVKDFGKREVMMVHTLLWPDEIRDPDFPVLDQKVEIKPAELKMAGQVVDSMADDFNPDRYHDTYQEQLQELIDTKLEGGQAFTAEDQ
modifications: biotinylated at multiple sites with NHS-LC-Biotin for BLI only (sites listed in Supplementary Table S3)
Turning to B6, in data set [10], the “stoichiometry N” value was determined as 2. Moreover, the Kd in data set [11] came out at 200 nM.

B7: 30 bp dsDNA (dsDNA)
DNA 1: CAGGAGGTGTAGGGAAGGGAATGTTGTCTG
DNA 2: CAGACAACATTCCCTTCCCTACACCTCCTG
Take B7: the binding result in the data set with LigD is “binds”. Further, the Kd with KuWT [6] is 1180 ± 90 nM.

B8: Mycobacterium tuberculosis Ku, wildtype (natural protein)
chain: MRAIWTGSIAFGLVNVPVKVYSATADHDIRFHQVHAKDNGRIRYKRVCEACGEVVDYRDLARAYESGDGQMVAITDDDIASLPEERSREIEVLEFVPAADVDPMMFDRSYFLEPDSKSSKSYVLLAKTLAETDRMAIVHFTLRNKTRLAALRVKDFGKREVMMVHTLLWPDEIRDPDFPVLDQKVEIKPAELKMAGQVVDSMADDFNPDRYHDTYQEQLQELIDTKLEGGQAFTAEDQPRLLDEPEDVSDLLAKLEASVKARSKANSNVPTPP
notes: The His tag is TEV-cleavable (pMCSG7) and no cleavage is described; also called KuWT
Consider B8, for which, in [7], the “stoichiometry N” value came out at 2.
